Here are results for eight molecules from US20240424125A1 (Zymeworks, published 2024).

Assay [1] has as its target T1, human FRα on cells (human, UniProt P15328 25-234).
T1 construct: Transiently expressed on HEK293-6e, CHO-S or HEK293 microarray cells, or endogenous on JEG-3, HEC-1-A, IGROV-1, OVCAR-3, H2110, KB-HeLa and T-47D cells; also called human folate receptor alpha; FOLR1
As to the kind of experiment: apparent Kd, flow cytometry, CHO-S cells transiently expressing human FRα, 24 h at 4°C. The method, then:
Briefly, CHO-S cells were transfected for −24 hours to transiently express human or cynomolgus monkey FRα, 1 ug DNA per 1 million cells. Following transfection, cells were seeded at 50,000 cells/well in V-bottom 96-well plates and treated with antibody for 24 hours at 4° C. to prevent internalization. […] Following incubation and washing, fluorescence was detected by flow cytometry on a BD LSRFortessa™ Cell Analyzer (BD Biosciences, Franklin Lake, NJ).

In assay [2] the target is T1, human FRα on cells. As to the kind of experiment: apparent Kd, flow cytometry on JEG-3 cells (endogenous FRα), as in Example 16. On the procedure:
(§1) Briefly, cells were seeded at 50,000 cells/well in V-bottom 96-well plates and treated with antibody for 24 hours at 4° C. to prevent internalization. […] Following incubation and washing, fluorescence was detected by flow cytometry on a BD LSRFortessa™ Cell Analyzer (BD Biosciences, Franklin Lake, NJ) with 1,000 minimum events collected per well. AF647/APC-A GeoMean (fluorescence signal geometric mean, proportional to anti-Human AF647 binding) in live cell population was plotted using GraphPad Prism Version 9 (GraphPad Software, San Diego, CA).

Assay [3] deals with T1, human FRα on cells. As to the kind of experiment: apparent Kd, flow cytometry on IGROV-1 cells (endogenous FRα), as in Example 16. The method, then: as §1
The target in assay [4] is T2, recombinant His-tagged human FRα (ACROBiosystems) (human, UniProt P15328 25-233).
T2 construct: also called hFRα; hFRα antigen; not shown: His tag
In words: BLI (Octet RED96) as in Example 8: antibody captured, His-tagged hFRα as analyte, mean of n=2. On the procedure: (§2) The assay buffer used was KB buffer (kinetics buffer, composed of PBS pH 7.4, 0.1% BSA, 0.02% Tween 20, 0.05% sodium azide) supplemented with 0.06% Tween 20 and in some instances also with 1% BSA. The experiment was conducted at 30° C. with a shake speed of 1000 rpm.
(§3) Data analysis was performed using Data Analysis Software 9.0 (ForteBio, Fremont CA). The reference-subtracted binding curves were globally fitted to the 1:1 interaction model to generate the binding kinetic parameters kₒₙ, koff, and the dissociation constant KD.

Assay [5] concerns the target T2, recombinant His-tagged human FRα …. As to the kind of experiment: BLI (Octet RED96); end of the range tied to v35305 by Table 20.1. On the procedure: as §2, §3
Assay [6] has the same target. In words: SPR (Biacore T200): hFRα amine-coupled to CM5 chip at high antigen density, one-armed antibody injected, 1:1 Langmuir fit, mean of n=2. The method, then:
(§4) CM5 Series S sensor chip, Biacore™ amine coupling kit (NHS, EDC and 1 M ethanolamine), and 10 mM sodium acetate buffers were purchased from GE Healthcare Life Science (Mississauga, ON, Canada). PBS running buffer with 0.05% Tween20 (PBST) was purchased from Teknova Inc. (Hollister, CA). Recombinant human FRα was purchased from ACRObiosystems (Newark, DE).
(§5) Screening of the variants for binding to hFRα antigen was conducted in two steps: capture of hFRα onto surface, followed by injection of three to five concentrations of variant. The hFRα surface was prepared on a CM5 Series S sensor chip by standard amine coupling methods as described by the manufacturer (GE Healthcare Life Science, Mississauga, ON, Canada). The immobilization of the hFRα was performed using Biacore™ T200 immobilization wizard with an amine coupling method aiming for resonance units (RUs) ranging from 5 to 200 RUs. Using multi-cycle kinetics, three to five concentrations of a two-fold dilution series of samples starting at 300 nM with a blank buffer control were injected at 50 uL/min for 180s with a 600s dissociation phase, resulting in a set of sensorgrams with a buffer blank reference. The hFRα surface was regenerated to prepare for the next injection cycle by one pulse of 10 mM glycine/HCl pH 1.5 for 30s at 30 uL/min. Blank-subtracted sensorgrams were analyzed using Biacore™ T200 Evaluation Software v3.0. The blank-subtracted sensorgrams were then fit to the 1:1 Langmuir binding model.

The target is the same in assay [7]. As to the kind of experiment: SPR (Biacore T200): hFRα amine-coupled to CM5 chip at medium antigen density, one-armed antibody injected, 1:1 Langmuir fit, mean of n=2. The method, then:
as §4, §5

Assay [8] has the same target. As to the kind of experiment: SPR (Biacore T200): hFRα amine-coupled to CM5 chip at medium-low antigen density, one-armed antibody injected, 1:1 Langmuir fit, mean of n=2. On the procedure:
as §4, §5

A further assay concerns the target T3, FCGR1A (human, UniProt P12314).
T3 construct: overexpressed on reverse-transfected HEK293 cells, fixed; One of the FcgR receptors that the text names only as a group
As to the kind of experiment: Retrogenix cell microarray, fixed cell confirmation screen, HEK293 cells overexpressing the protein, v36675 at 20 µg/mL, detection with AF647 anti-hIgG H+L; the text calls FcgR signals Fc-domain mediated. On the procedure: (§6) Fluorescent images were analysed and quantitated (for transfection) using ImageQuant™ software (Version 8.2; GE Healthcare, Chicago, IL). A protein hit was defined as a duplicate spot showing an increased signal compared to background levels and was identified by visual inspection using the images gridded on the ImageQuant™ software. Hits were classified as strong, medium, weak or very weak by visual inspection by two experienced scientists based on the intensity of the duplicate spots.

In the next assay the target is T4, FCGR2A (human, UniProt P12318).
T4 construct: overexpressed on reverse-transfected HEK293 cells, fixed; One of the FcgR receptors that the text names only as a group
T4 sequence (receptor chain, looked up): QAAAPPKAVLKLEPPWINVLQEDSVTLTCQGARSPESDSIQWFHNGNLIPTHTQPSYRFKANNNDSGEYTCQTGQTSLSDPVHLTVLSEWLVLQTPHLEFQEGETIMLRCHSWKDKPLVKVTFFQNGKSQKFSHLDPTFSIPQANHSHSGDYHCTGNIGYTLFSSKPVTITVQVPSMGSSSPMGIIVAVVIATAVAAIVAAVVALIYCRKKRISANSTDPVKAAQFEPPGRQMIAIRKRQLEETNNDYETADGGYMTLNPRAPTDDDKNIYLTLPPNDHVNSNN
The description is as above. The method, then: as §6

For assay [9], the target named is T2, recombinant His-tagged human FRα …. As to the kind of experiment: BLI (Octet RED96); end of the range tied to v35348 by Table 20.1. The method, then:
as §2, §3

T1 sequence (P15328 25-234 limits assumed): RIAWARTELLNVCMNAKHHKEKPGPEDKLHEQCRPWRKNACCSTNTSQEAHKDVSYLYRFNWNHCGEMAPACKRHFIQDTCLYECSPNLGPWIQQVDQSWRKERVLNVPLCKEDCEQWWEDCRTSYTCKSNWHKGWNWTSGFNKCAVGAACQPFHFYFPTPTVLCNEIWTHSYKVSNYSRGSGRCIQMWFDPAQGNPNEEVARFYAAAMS
T2 sequence (P15328 25-233 limits assumed): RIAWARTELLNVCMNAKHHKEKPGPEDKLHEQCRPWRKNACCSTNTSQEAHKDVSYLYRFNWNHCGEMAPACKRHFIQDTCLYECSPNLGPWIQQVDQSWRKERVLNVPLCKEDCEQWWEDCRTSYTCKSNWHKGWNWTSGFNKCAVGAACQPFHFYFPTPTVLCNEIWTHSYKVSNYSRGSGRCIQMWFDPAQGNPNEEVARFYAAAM
T3 sequence (P12314 16-374 limits assumed): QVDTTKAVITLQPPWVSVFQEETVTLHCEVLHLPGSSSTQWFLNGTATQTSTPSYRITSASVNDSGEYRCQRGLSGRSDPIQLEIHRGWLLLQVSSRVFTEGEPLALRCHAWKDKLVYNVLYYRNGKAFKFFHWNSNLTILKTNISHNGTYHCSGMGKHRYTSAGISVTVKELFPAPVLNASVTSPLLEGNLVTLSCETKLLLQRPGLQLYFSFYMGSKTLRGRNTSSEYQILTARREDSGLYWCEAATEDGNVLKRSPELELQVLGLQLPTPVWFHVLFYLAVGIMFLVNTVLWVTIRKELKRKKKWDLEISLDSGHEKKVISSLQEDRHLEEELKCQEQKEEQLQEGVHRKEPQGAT

B1: Palivizumab (anti-RSV) (v22277) (antibody, V domains shown)
VH: QVTLRESGPALVKPTQTLTLTCTFSGFSLSTSGMSVGWIRQPPGKALEWLADIWWDDKKDYNPSLKSRLTISKDTSKNQVVLKVTNMDPADTATYYCARSMITNWYFDVWGAGTTVTVSS
VL: DIQMTQSPSTLSASVGDRVTITCKCQLSVGYMHWYQQKPGKAPKLLIYDTSKLASGVPSRFSGSGSGTEFTLTISSLQPDDFATYYCFQGSGYPFTFGGGTKLEIK
Turning to B1, the Kd with human FRα on cells [1] was more than 50 nM.

B2: v35356 (antibody, human IgG1, kappa, V domains shown)
VH: EVQLLESGGGLVQPGGSLRLSCAVSGFSLSSYGVSWVRQAPGKGLEWIGAVNSGGSAYYADSFKGRSTISRDNSKNTVYLQMNSLRAEDTAVYYCARSGSGYPMDYHPIWGQGTLVTVSS
VL: DYQMTQSPSSVSASVGDRVTITCRASQSIGDWLAWYQQKPGKAPKLLIYEASTLASGVPSRFSGSGSGTDFTLTISSVQPEDAATYYCQQGYGRWHILNIFGGGTKVEVKR
For the molecule B2, the Kd in the assay with human FRα on cells [2] was found to be 0.44 nM; in the assay with human FRα on cells [3], 1.31 nM; in assay [4] it was 4.98 nM.

B3: v35305 (antibody, human IgG1, kappa, V domains shown)
VH: EVQLLESGGGLVQPGGSLRLSCAVSGFSLSLYGVSWVRQAPGKGLEWIGAVNSGGSAYYADSVKGRSTISRDNSKNTVYLQMNSLRAEDTAVYYCARSGSGYPMDYLAIWGQGTLVTVSS
VL: DYQMTQSPSSVSASVGDRVTITCRASQSIWYWLAWYQQKPGKAPKLLIYEASTLASGVPSRFSGSGSGTDFTLTISSVQPEDAATYYCQQGYGRSNVDNIFGGGTKVEVKR
Regarding B3, in assay [5], the “fold improvement of affinity over the parental humanized antibody v30384” value stood at 12 fold. The Kd in [4] amounted to 10.8 nM.

B4: v32597 (antibody, V domains shown)
VH: EVQLLESGGGLVQPGGSLRLSCAVSGFSLSSYGVSWVRQAPGKGLEWIGAVNSGGSAYYADSVKGRSTISRDNSKNTVYLQMNSLRAEDTAVYYCARSGSGYPMDYLAIWGQGTLVTVSS
VL: DYQMTQSPSSVSASVGDRVTITCRASQSIGDWLAWYQQKPGKAPKLLIYEASTLASGVPSRFSGSGSGTDFTLTISSVQPEDAATYYCQQGYGRSNVDNIFGGGTKVEVK
notes: One-armed antibody (OAA) format, equivalent of v30384; also called OAA v30384 equivalent; one-armed antibody equivalent of v30384
For the molecule B4, the figures for the Kd in assay [6], in assay [7] and in assay [8] were 143 nM, 139 nM and 146 nM, respectively.

B5: v36675 (antibody, human IgG1, kappa)
heavy: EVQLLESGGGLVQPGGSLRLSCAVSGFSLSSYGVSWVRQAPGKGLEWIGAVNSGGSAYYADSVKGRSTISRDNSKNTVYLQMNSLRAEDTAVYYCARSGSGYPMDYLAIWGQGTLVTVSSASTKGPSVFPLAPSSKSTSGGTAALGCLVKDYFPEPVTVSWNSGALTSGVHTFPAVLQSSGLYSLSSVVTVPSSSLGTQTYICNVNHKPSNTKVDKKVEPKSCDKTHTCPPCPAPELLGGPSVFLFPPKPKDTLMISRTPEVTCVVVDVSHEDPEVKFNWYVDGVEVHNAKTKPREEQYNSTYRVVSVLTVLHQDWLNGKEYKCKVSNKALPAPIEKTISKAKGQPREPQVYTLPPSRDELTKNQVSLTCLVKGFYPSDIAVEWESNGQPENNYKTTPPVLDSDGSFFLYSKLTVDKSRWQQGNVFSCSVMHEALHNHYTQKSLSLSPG
light: DYQMTQSPSSVSASVGDRVTITCRASQSIGDWLAWYQQKPGKAPKLLIYEASTLASGVPSRFSGSGSGTDFTLTISSVQPEDAATYYCQQGYGRSNVDNIFGGGTKVEVKRTVAAPSVFIFPPSDEQLKSGTASVVCLLNNFYPREAKVQWKVDNALQSGNSQESVTEQDSKDSTYSLSSTLTLSKADYEKHKVYACEVTHQGLSSPVTKSFNRGEC
notes: Same paratopes as v30384 but HomoFc instead of HetFc; also called humanized variant v36675
As to B5, the binding result in the assay with FCGR1A and with FCGR2A was “binds” in each case.

B6: v32598 (antibody, V domains shown)
VH: EVQVLESGGGLVQPGGSLRLSCAVSGFSLSSYGVSWVRQAPGKGLEWIGAVNSGGSAYYADWAKGRSTISRDNSKNTVYLQMNSLRAEDTAVYYCARSGSGYPMDYLAIWGQGTLVTVSS
VL: DYQMTQSPSSVSASVGDRVTITCRASQSIGDWLAWYQQKPGKAPKLLIYEASTLASGVPSRFSGSGSGTDFTLTISSVQPEDAATYYCQQGYGRSNVDNIFGGGTKVEVK
notes: One-armed antibody (OAA) format, equivalent of v30399; also called OAA v30399 equivalent; one-armed antibody equivalent of v30399
For the molecule B6, the values for the Kd in assay [6], in assay [7] and in assay [8] were 82 nM, 80.8 nM and 91.5 nM, respectively.

B7: v35348 (antibody, human IgG1, kappa, V domains shown)
VH: EVQLLESGGGLVQPGGSLRLSCAVSGFSLSLYGVSWVRQAPGKGLEWIGAVNSGGSAYYADSFKGRSTISRDNSKNTVYLQMNSLRAEDTAVYYCARSGSGYPMDYHPIWGQGTLVTVSS
VL: DYQMTQSPSSVSASVGDRVTITCRASQSIGDWLAWYQQKPGKAPKLLIYEASTLASGVPSRFSGSGSGTDFTLTISSVQPEDAATYYCQQGYGRWHILNIFGGGTKVEVKR
In the case of B7, in [9], the “fold improvement of affinity over the parental humanized antibody v30384” value was determined as 58 fold. Moreover, the Kd in assay [4] stood at 2.2 nM.

B8: v32596 (antibody, V domains shown)
VH: QSVKESEGGLFKPTDTLTLTCTVSGFSLSSYGVSWVRQAPGNGLEWIGAVNSGGSAYYANWAKSRSTITRNTNLFTVTLKMTSLAVADTATYFCARSGSGYPMDYLAIWGPGTLVTVSS
VL: AYDMTQTPASVEVAVGGTVTIKCQASQSIGDWLAWYQQKPGQPPRLLIYEASTLASGVPSRFSGSGSGTQFTLTISGVECADAATYYCQQGYGRSNVDNIFGGGTEVVVK
notes: One-armed antibody (OAA) format, said to be the equivalent of the FSA v23924; also called OAA v23924 equivalent; one-armed antibody equivalent of v23924
Consider B8, for which the Kd in assay [6] stood at 30 nM; in assay [7], 30.3 nM; in assay [8], 37.9 nM.
